Here are results for three molecules from article PMC5971202.

Read-outs that look alike come from different tables or passages of the source.

Holding throughout (experiment): EMSA
Background: A gel shift assay detects complexes by their altered migration in electrophoresis.

The target in data set [1] is T1, rDDX1 (WT) (human, UniProt Q92499 1-728).
T1 sequence: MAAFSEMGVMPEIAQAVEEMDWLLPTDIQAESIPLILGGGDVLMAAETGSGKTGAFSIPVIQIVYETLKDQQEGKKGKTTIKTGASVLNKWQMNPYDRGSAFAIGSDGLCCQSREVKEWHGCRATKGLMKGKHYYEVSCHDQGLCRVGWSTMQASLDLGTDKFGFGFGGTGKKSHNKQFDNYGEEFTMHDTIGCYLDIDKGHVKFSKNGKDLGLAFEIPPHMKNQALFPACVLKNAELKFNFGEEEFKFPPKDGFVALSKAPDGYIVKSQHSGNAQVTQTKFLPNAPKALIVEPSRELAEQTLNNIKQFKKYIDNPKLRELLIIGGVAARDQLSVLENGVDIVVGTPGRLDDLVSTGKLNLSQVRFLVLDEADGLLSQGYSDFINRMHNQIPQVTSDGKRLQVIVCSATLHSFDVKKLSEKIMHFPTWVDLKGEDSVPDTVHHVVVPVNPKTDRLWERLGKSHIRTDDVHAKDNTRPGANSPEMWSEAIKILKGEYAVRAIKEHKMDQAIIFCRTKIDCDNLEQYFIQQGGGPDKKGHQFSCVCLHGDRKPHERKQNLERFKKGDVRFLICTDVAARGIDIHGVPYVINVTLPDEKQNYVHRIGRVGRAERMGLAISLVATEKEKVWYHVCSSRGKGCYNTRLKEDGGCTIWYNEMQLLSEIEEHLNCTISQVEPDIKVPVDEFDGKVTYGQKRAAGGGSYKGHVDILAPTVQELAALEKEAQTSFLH

The target of data set [2] is T2, rDDX1-K52A (human, UniProt Q92499 1-728, K52A).
T2 sequence: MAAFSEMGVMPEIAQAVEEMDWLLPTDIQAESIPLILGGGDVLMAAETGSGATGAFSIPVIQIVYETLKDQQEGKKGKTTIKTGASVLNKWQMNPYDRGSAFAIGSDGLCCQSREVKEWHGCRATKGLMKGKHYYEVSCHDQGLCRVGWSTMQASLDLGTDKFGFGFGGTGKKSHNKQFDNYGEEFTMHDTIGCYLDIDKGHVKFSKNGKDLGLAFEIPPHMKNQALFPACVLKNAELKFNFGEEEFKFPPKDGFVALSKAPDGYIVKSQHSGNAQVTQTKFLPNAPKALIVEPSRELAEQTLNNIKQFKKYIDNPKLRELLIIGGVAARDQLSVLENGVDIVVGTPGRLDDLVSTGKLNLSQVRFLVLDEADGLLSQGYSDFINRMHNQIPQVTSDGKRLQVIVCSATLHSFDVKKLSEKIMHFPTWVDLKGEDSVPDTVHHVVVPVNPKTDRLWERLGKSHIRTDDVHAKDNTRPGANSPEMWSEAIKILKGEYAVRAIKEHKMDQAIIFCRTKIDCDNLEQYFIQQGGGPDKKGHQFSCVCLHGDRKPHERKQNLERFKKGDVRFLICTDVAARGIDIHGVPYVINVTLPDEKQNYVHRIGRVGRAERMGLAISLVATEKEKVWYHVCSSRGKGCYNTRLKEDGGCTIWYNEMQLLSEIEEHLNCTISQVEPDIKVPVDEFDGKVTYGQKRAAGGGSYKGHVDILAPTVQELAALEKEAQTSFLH

In data set [3] the target is T1, rDDX1 (WT). The source holds these as a separate data set.
The target of data set [4] is T2, rDDX1-K52A. This is another data set of the same source.

B1: Sμ4G RNA 32P (structured_RNA)
RNA: GAGCUGGGGUGAGCUGGGGUGAGCUGGGGUGAGCUGGGGU
With B1, the binding result with rDDX1 (WT) [1] and in the data set with rDDX1-K52A [2] was “binds” in each case.

B2: Single-stranded DNA (ssDNA)
DNA: ATCGGAATGTATGAGAATAGAAGAGATAATGAATAATAGAA
B2: the binding result in the data set with rDDX1 (WT) [3] and with rDDX1-K52A [4] was “no binding” each time.

B3: Sμ4Gmut RNA 32P (ssRNA)
RNA: GAGCUGCGCUGAGCUGCGCUGAGCUGCGCUGAGCUGCGCU
Consider B3, for which the binding result with rDDX1 (WT) [1] is reported as “no binding”.
